Results: patent US20100196385A1 (AstraZeneca / MedImmune, published 2010)
Each block holds one binder with its values, some of them ahead of it.

Key:
human Dll1 [1] = biological target: T1, human Dll1 (human, UniProt O00548 18-723); assay: FACS, HEK-293 cells stably overexpressing human Dll1
T1 construct: whole, on cells
T1 sequence (looked up): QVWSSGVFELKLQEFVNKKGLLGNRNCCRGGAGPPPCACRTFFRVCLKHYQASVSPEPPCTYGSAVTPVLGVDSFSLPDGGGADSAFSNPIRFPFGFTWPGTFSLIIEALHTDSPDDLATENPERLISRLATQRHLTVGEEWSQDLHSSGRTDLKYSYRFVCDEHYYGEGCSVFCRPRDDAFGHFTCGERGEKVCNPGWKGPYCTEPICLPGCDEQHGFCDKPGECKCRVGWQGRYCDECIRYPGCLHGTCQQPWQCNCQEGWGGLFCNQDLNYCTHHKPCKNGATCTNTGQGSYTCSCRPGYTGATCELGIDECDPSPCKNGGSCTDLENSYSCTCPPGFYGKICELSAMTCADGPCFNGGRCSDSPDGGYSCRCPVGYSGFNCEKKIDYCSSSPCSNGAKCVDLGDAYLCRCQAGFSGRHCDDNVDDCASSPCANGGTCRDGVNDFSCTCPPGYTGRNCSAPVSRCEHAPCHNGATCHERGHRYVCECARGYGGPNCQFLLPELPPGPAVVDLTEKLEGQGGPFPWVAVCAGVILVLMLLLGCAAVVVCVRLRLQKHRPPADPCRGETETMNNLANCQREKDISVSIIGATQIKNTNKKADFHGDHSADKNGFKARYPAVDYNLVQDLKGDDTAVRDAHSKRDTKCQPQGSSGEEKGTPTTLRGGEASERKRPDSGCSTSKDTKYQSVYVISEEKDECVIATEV

human Jagged1 [2] = biological target: T2, human Jagged1 (human, UniProt P78504 34-1218); assay: FACS, 5 µg/ml, 293T cells with human Jagged1
T2 construct: whole, on cells
T2 sequence (P78504 34-1218): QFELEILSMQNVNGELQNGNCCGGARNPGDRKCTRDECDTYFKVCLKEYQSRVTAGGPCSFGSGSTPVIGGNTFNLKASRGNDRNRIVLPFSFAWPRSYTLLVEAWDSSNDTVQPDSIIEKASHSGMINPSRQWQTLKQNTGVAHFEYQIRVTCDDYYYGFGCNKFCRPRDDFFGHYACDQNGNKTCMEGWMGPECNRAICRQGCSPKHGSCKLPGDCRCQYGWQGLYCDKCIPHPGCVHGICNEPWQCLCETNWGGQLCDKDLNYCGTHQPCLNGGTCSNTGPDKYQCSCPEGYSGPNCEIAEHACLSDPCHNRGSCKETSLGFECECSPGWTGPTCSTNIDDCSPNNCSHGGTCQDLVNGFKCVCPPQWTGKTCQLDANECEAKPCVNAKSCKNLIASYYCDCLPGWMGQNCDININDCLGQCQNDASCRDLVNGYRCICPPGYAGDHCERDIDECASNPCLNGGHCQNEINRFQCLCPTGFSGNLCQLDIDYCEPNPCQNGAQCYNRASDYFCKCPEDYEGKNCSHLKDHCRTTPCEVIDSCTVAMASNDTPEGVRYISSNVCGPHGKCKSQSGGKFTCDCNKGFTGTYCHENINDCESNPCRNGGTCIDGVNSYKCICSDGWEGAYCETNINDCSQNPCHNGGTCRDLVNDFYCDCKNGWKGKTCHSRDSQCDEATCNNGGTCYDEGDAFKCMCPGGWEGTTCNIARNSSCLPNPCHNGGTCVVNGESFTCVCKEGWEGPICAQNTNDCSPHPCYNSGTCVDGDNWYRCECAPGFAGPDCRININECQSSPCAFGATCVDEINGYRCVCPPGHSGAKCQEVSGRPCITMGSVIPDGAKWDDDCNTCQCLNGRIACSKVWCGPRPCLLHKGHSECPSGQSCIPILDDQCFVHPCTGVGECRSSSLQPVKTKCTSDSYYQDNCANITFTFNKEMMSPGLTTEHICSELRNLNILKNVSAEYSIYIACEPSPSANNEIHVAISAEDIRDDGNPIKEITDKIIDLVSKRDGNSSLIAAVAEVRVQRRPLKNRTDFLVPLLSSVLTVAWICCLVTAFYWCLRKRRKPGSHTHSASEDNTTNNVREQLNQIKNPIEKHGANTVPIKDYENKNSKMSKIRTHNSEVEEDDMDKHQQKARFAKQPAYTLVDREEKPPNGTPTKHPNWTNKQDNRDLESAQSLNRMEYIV
How it was run: (§1)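 Read-out is the change in geometric mean fluorescence between mock-transfected and Jagged1- or Dll1-transfected cells. Anti-DLL4 antibodies bound to cells suspended in PBS containing 2% FCS during a 1 h incubation at 4 °C.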

human Jagged1 [3] = biological target: T2, human Jagged1; assay: FACS, HEK-293 cells stably overexpressing human Jagged1
Experimental: The ability of the purified antibodies to bind to human Jagged1 and Dll1 was determined by FACS analysis. […] Cells were resuspended in PBS containing 2% FCS and seeded at 50000 cells/well into V-bottomed plates. Anti-DLL4 antibodies diluted in PBS containing 2% FCS were added at a final concentration of 5 or 15 μg/ml and plates were incubated for 1 h at 4° C. […] Data was analyzed by comparing the shift in geometric mean fluorescence in the mock-transfected cells to that observed in the Jagged1- or Dll1-transfected cells and is shown in Tables 16 and 17.

full length human DLL4 [4] = biological target: T3, full length human DLL4 (human, UniProt Q9NR61 27-685); assay: FMAT, hybridoma supernatant, 293T cells with human DLL4
T3 construct: whole, on cells; also called native DLL4 expressed in HEK293 cells
T3 sequence (Q9NR61 27-685): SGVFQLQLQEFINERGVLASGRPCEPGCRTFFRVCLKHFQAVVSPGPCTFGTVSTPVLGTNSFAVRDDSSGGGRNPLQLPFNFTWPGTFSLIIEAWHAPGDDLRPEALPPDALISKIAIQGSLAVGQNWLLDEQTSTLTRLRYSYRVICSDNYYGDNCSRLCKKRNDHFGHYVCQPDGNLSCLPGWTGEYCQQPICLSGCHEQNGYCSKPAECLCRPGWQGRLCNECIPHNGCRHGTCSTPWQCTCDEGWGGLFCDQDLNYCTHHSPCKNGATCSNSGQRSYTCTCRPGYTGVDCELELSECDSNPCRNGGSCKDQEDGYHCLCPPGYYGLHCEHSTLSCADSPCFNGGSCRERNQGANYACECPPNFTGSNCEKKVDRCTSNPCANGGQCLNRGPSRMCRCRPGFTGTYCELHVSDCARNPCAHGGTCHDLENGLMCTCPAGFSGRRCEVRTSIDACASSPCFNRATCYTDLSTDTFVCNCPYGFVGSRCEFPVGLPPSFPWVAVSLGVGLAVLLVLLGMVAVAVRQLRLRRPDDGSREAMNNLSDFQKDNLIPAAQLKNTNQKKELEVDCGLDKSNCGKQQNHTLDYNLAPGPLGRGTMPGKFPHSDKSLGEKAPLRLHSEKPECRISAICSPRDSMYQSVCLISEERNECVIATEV
Experimental: (§2) Cells diluted in PBS containing 2% FBS were seeded at a density of 3000 expressing and 15000 mock transfected cells per well in 384 well plates (Corning Costar, catalog #3712). Immediately after plating, 15 or 20 μl/well of hybridoma supernatants and 10 μl/well of secondary antibody (Goat anti-human IgG Fc Cy5, final concentration 750 ng/ml) were added and plates incubated for 3 h at room temperature prior to reading the fluorescence on the FMAT 8200 instrument (Applied Biosystems). The binding of human Notch1/Fc chimera (R&D systems, catalog #3647-TK), diluted 1:2 from 2.86 μg/ml was used as a positive control for DLL4 and human Notch3/Fc chimera diluted from 10 μg/ml was used a positive control for binding to Jagged1. Results for 12 hybridoma supernatants showing binding of hybridoma supernatants to human/cynomolgus monkey DLL4 and human Jagged are shown in Table 3.

human Dll1 [5] = biological target: T1, human Dll1; assay: FACS, 15 µg/ml, 293T cells with human Dll1 vs mock
How it was run: as §1

full length human DLL4 [6] = biological target: T3, full length human DLL4; assay: FMAT competition, supernatant vs Alexa-647 human Notch1/Fc, 293T cells with human DLL4; FMAT competition with Alexa-647 human Notch1/Fc, native human DLL4 on 293T cells, 4 C, n = 2
Experimental: (§3) Transfected and untransfected 239T cells were reconstituted in PBS containing 2% FCS and 5000 transfected and 17500 non-transfected cells were plated in 20 μl into wells of a 384-well tissue culture plate (Corning Costar, catalog #3712). Subsequently, 20 μl of hybridoma supernatant was added and plates were incubated at 4° C. for 1 h, at which time 20 μl of Alexa-647 labeled human Notch1/Fc was added at a final concentration of 6.7 ng/ml. After a further 3 h incubation at 4° C., the amount of bound Notch1/Fc was determined by reading the fluorescence in each well using an FMAT 8200 instrument (Applied Biosystems). Results are expressed as % inhibitions with the minimum inhibition in the assay being determined by the effects of non-DLL4 binding supernatants prepared in a similar way as described in example 2, and the maximum inhibition being defined as the signal obtained in the presence of a saturating concentration of unlabeled Notch1/Fc. N.T.=not tested

full length human DLL4 [7] = biological target: T3, full length human DLL4; assay: FACS competition vs 0.25 µg/ml human Notch1/Fc, HEK293 cells with human DLL4
Experimental: Further experiments were performed on selected antibodies using HEK293 cells that were stably transfected with either human, mouse or cynomolgus monkey DLL4 using retroviral constructs. In these experiments, anti-DLL4 antibodies (final concentration: 10-0.01 μg/ml) diluted in PBS containing 2% FCS were added to DLL4-expressing HEK 293 cells (50000 cells/well diluted in PBS containing 2% FCS) and incubated for 1 h at 4° C. Subsequently, Alexa-647 labeled human, rat or APC labeled mouse Notch1/Fc (e.g. R&D Systems, catalog #3647-TK-050, 1057-TK-050, 5267-TK-050, respectively) was added at a final concentration of 0.01-0.5 μg/ml and plates were incubated for a further 2 h at 4° C. prior to washing and reading on a FACSCalibur instrument.

full length human DLL4 [8] = biological target: T3, full length human DLL4; assay: FMAT competition, supernatant vs Alexa-647 human Notch1/Fc, 293T cells with human DLL4; FMAT competition with Alexa-647 human Notch1/Fc, native human DLL4 on 293T cells, 4 C, n = 3
Experimental: as §3

full length human DLL4 [9] = biological target: T3, full length human DLL4; assay: FMAT, hybridoma supernatant, 293T cells with human DLL4; FMAT, hybridoma supernatant, native full length human DLL4 on live 293T cells, room temperature
Experimental: as §2

binding result (human Dll1 [1]): no binding
Jagged1/293T X Geo mean (human Jagged1 [2]): 9.28
binding result (human Jagged1 [3]): no binding
Count (full length human DLL4 [4]): 191
FL1 (full length human DLL4 [4]): 10800
FL1 x count (full length human DLL4 [4]): 2.06e+06
Dll1/mock ratio (human Dll1 [5]): 1.1
B1: 2H10 (antibody, IgG4, V domains shown)
VH: QVQLVESGGGVVQPGRSLRLSCAASGFTFSRHGMHWVRQAPGKGLEWVAVVWFDGSNIYYADSVKGRFTISRDNSKNTLYLQMNSLRAEDTAMYYCARDSRIAAADYWGQGTLVTVSS
VL: SYELTQPPSVSVSPGQTVSITCSGDKLGDKYVCWYQQKPGQSPVLVIYQESKRPSGIPERFSGSSSGNTATLTISGTQAMDEADYYCQTWDSSLVVFGGGTKLTVL
notes: Fully human; used for IgG4 rows and where no isotype is printed; also called 2H10 IgG4

Jagged1/293T X Geo mean (human Jagged1 [2]): 17.4
Count (full length human DLL4 [4]): 198
FL1 (full length human DLL4 [4]): 9810
FL1 x count (full length human DLL4 [4]): 1.94e+06
Dll1/mock ratio (human Dll1 [5]): 1.23
B2: 9G8 (antibody, IgG4, V domains shown)
VH: QLQLQESGPGLVKPSETLSLSCTVSGGSISSSSSYWGLIRQPPGKGLEWIGSIYYSGSTYYSPSLKSRVSISVDTSKNQFSLKLSSVTAADTAVYFCARQGYGGHPDVFDIWGQGTMVTVSS
VL: SSELTQSPSVSVSPGQTARITCSGDKLGDVYVCWYQQKTGQSPVLVIYEDTKRPSGIPERFSGSNSGNTATLTISGTQVMDEADYYCQAWDSTTAVIFGGGTKLTVL
notes: Fully human; used for IgG4 rows and where no isotype is printed; also called 9G8 IgG4

Jagged1/293T X Geo mean (human Jagged1 [2]): 15.5
% inhibition n = 2 (full length human DLL4 [6]): 131%
IC50 (full length human DLL4 [7]): 1.59 nM
% inhibition n = 3 (full length human DLL4 [8]): 140%
Count (full length human DLL4 [9]): 181
FL1 (full length human DLL4 [9]): 10500
FL1 x count (full length human DLL4 [9]): 1.91e+06
Dll1/mock ratio (human Dll1 [5]): 1.16
B3: 21H3 (antibody, IgG4, V domains shown)
VH: QVQLVQSGAEVKKPGASVKVSCKASGYTFTNYGITWVRQAPGQGPEWMGWISAYNGNTNYAQKLQDRVTVTTDTSTSTAYMELRSLRSDDTAVYYCARDRVPRIPVTTEAFDIWGQGTMVTVSS
VL: QSVLTQPPSASGTPGQRVTISCSGSSSNIGSYFVYWYQQLPGTAPKLLIYRNNQRPSGVPDRFSGSESGTSASLAISGLRSEDEADYYCAAWDDSLSGHWVFGGGTRLTVL
notes: Fully human; used for IgG4 rows and where no isotype is printed; also called 21H3 IgG4

binding result (human Dll1 [1]): no binding
Jagged1/293T X Geo mean (human Jagged1 [2]): 16.8
binding result (human Jagged1 [3]): no binding
% inhibition n = 2 (full length human DLL4 [6]): 109%
IC50 (full length human DLL4 [7]): 1.62 nM
% inhibition n = 3 (full length human DLL4 [8]): 148%
Count (full length human DLL4 [9]): 194
FL1 (full length human DLL4 [9]): 9930
FL1 x count (full length human DLL4 [9]): 1.93e+06
Dll1/mock ratio (human Dll1 [5]): 1.23
B4: 4B4 (antibody, IgG4, V domains shown)
VH: QVLLIQSGAEVKKPGASVQVSCKASGYTFTNYGVIWVRQAPGQGLEYMGWISAYNGNTNYAQKLQDRVTMTSDTSTTTAYMELRSLRSDDTAVYYCARELGSSFDYWGQGTLVTVSS
VL: SYELTQPPSVSVSPGQTARITCSGDALPKKYAYWYQQKSGQAPVLVIYEDIKRPSGIPERFSGSSSGTMATLTISGAQVEDEADYYCFSTDNSGDHSVFGGGTKLTVL
notes: Fully human; used for IgG4 rows and where no isotype is printed; also called 4B4 IgG4; 4B4.1
